T1: monkey GFRα3 expressed with a C-terminal myc-myc-hexahistidine tag (monkey (Mf), UniProt O60609 32-374 (human entry), limits assumed)
T1 construct: also called MfGFRα3-mmh; MfGFRα3-mmH
T1 chain: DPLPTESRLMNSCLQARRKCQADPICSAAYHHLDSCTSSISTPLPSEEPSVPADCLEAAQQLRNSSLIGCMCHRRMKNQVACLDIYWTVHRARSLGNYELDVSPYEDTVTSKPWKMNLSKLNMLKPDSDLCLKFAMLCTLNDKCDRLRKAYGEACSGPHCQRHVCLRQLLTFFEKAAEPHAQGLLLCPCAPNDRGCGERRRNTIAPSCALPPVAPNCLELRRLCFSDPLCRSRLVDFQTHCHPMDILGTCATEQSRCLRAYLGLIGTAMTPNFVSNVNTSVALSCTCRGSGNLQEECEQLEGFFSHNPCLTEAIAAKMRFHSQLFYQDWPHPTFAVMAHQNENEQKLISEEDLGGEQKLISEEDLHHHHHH

T2: human GFRα3 expressed with a C-terminal mFc tag (human)
T2 construct: also called hGFRα3-mFc
T2 chain: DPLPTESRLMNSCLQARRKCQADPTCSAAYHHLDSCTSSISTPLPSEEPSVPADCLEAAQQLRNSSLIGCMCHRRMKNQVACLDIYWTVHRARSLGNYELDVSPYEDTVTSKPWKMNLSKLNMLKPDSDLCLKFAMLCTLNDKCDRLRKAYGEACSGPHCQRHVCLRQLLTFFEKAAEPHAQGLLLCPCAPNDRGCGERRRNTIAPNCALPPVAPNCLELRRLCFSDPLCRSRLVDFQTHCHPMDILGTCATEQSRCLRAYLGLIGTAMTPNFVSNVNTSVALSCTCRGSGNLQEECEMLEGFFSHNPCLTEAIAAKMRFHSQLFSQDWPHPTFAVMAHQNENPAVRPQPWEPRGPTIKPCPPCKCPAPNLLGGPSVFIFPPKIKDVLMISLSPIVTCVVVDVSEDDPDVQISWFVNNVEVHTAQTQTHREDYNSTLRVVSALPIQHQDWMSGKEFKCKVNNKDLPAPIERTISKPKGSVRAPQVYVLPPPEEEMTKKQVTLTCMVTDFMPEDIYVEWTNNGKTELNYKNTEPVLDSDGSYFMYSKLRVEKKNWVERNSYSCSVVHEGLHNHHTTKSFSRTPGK


Columns and labels:
[1] = target: T1, monkey GFRα3 expressed with a …; test: SPR, Ab captured, 25C
Outline: (§1)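 Capture: anti-mIgG or anti-hIgG on CM5. Analyte: mmh antigen 200–7.4 nM, hFc antigen 100–3.7 nM, 3-fold series. Assoc ≤4 min, dissoc ≤20 min. 1:1 fit; KD = kd/kₐ, t½ = ln2/(60*kd).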

[2] = target: T2, human GFRα3 expressed with a C-terminal …; test: SPR, Ab captured, 25C
Outline: as §1

[3] = target: T3, human GFRα3 expressed with a C-terminal myc-myc-hexahistidine tag (human, UniProt O60609 32-374, biotinylated (sites not given) in ELISA format 2 and in the Octet cross-competition; not in SPR); test: Octet cross-competition; biotin-hGFRα3-mmH pre-saturated with first antibody H4H2212N
T3 construct: also called hGFRα3-mmh; hGFRα3-mmH
Procedure: (§2) A cross-competition assay was conducted to assess the ability of select antibodies to compete with one another for binding to human GFRα3 using an Octet RED384 biosensor (Fortebio Inc.). The entire experiment was performed at 25° C. with the flow rate of 1000 rpm in Octet HBST buffer (0.01 M HEPES pH7.4, 0.15M NaCl, 3 mM EDTA, 0.05% v/v Surfactant P20, 0.1 mg/mL BSA). To assess whether 2 antibodies were able to compete with one another for binding to their respective epitopes on biotinylated recombinant human GFRα3 expressed with a C-terminal myc-myc-hexahistidine tag (biotin-hGFRα3-mmH; SEQ ID:370), around ˜1.2 nm of biotin-hGFRα3-mmH was first captured onto streptavidin-coated Octet sensor tips (Fortebio Inc, #18-5019) by submerging the tips for 1 minute into a 10 μg/mL solution of biotin-hGFRα3-mmH. The antigen coated sensor tips were then placed into wells containing 25 μg/mL solution of a first anti-GFRα3 monoclonal antibody for 4 minutes to saturate the biotin-hGFRα3-mmH surface. The sensor tips were then subsequently dipped into wells containing 25 μ/mL solution of a second anti-GFRα3 monoclonal antibody. The sensor tips were washed in Octet HBST buffer in between every step of the experiment. The real-time binding response was monitored during the course of the experiment and the binding response at the end of every step was recorded as shown in FIG. 9. The response of mAb-2 binding to biotin-hGFRα3-mmH pre-complexed with the first antibody was compared and competitive/non-competitive behavior of different anti-GFRα3 monoclonal antibodies was determined.

[4] = target: T3, human GFRα3 expressed with a C-terminal …; test: Octet cross-competition; biotin-hGFRα3-mmH pre-saturated with first antibody H4H2357S
Procedure: as §2

[5] = target: T3, human GFRα3 expressed with a C-terminal …; test: Octet cross-competition; biotin-hGFRα3-mmH pre-saturated with first antibody H4H2342P
Procedure: as §2

Binder	Kd [1] [nM]	koff [1] [s⁻¹]	kon [1] [M⁻¹ s⁻¹]	t1/2 [1] [h]	Kd [2] [nM]	koff [2] [s⁻¹]	kon [2] [M⁻¹ s⁻¹]	t1/2 [2] [h]	binding response of second antibody (nm) [3] [nm]	binding response of second antibody (nm) [4] [nm]	binding response of second antibody (nm) [5] [nm]
H4H2341S (antibody, human IgG4, V domains shown, human IgG4 Fc (H4H)) VH: EVQLVESGAEVKKSGSSVKVSCKASGGTFSRYAISWVRQAPGQGLEWMGGIIPLFGTLNYAQKFQGRVTLTTDESTSTAYMELSSLRSEDTAVYYCAVFYYGSGSYRNWFDPWGQGTLVTVSS VL: not shown	1.39	0.00013	93800	1.48	≤ 0.00168	≤ 1e-06	596000	192	–	–	–
H4H2236N3 (antibody, human IgG4, V domains shown, human IgG4 Fc (H4H)) VH: EVQLLESGGNLVQPGGSLRLSCAASGFTFSSYAMTWVRQAPGKGLEWVSTISGSGTSTYYADSVKGRFTISRDNSRDTVFLQMNSLRAEDTAVYYCSKPSALRFLHWLAMDVWGQGTLVTVSS VL: DIQMTQSPSSLSAFVGDRVTITCRASQDIRNYLDWFQQKPGKAPKSLIYAASNLQSGVPSRFGGSGSGTDFTLTINSLQPEDFVTYYCQQYNSYPPTFGGGTKVEIK	–	–	–	–	–	–	–	–	2.14	0.04	0.2
H4H2243N2 (antibody, human IgG4, V domains shown, human IgG4 Fc (H4H)) VH: QVQLVQSGAEVKKPGASVKVSCKASGYTFTSYGIIWVRQAPGQGLEWMGWISGYNGNTNYAQNLQGRVTMTTDTSTTTAYMELRSLRSDDTAVYYCARWGIATRPYYYYGMDVWGQGTTVTVSS VL: DIQMTQSPSSLSASVGDRVTITCRASQDITNYLAWFQQKPGKAPKSLIYAASSLQSGVPSKFSGSGSGTDFTLTISSLQPEDFATYYCQQYNSYPPTFGPGTKVDIK	–	–	–	–	–	–	–	–	0.16	0.01	0.11
H4H2345S (antibody, human IgG4, V domains shown, human IgG4 Fc (H4H)) VH: EVQLVESGGGLVRPGRSLRLSCAASGFTFDNYAMHWVRQVPGKGLEWVSGITWNSVSLGYADSVKGRFTISRDNAQNSLYLQMNSLRTVDTALYYCAKDRWGGSYYFDFWGQGTLVTVSS VL: DIVMTQSPSSLSASVGDRVTITCRASQGISNYLAWYQQKPGKVPKLLIYSASTLQSGVPSRFSGSGSGTDFTLTISNLQPEDFATFFCQKYNSAPTFGGGTKVEIK	28.7	0.00279	97500	0.0667	0.0584	3.01e-05	516000	6.4	–	–	–
H4H2291S (antibody, human IgG4, V domains shown, human IgG4 Fc (H4H)) VH: EVQLVESGGGLVQPGESLRLSCAASGFTFSNYAMSWVRQAPGKGLEWVSVISGSGGSTYYADSVKGRFTMSRDNSKNTLYLQMNSLRAEDTAVYYCAKPPSRAARYFNYGMDVWGQGTTVTVSS VL: AIRMTQSPSSVSASVGDRVTITCRASQGISSWLAWYQQKPGKAPKLLIYAASSLQSGVPSRFSGSGSGTDFTLTISSLQPEDFATYYCQQANSFPFTFGGGTKVEIK	1.85	0.000279	151000	0.683	0.00463	4.78e-06	1.03e+06	40.3	2.69	0.18	0.45
H4H2344S (antibody, human IgG4, V domains shown, human IgG4 Fc (H4H)) VH: EVQLVESGGGVVQPGRSLRLSCAASGFSFSDYVMHWVRQAPGKGLEWVASIWFDGSNEFYADSVKGRFTISRDNSKNTLFLQMNSLRAEDTAVYYCAKKGVLVATSAFDIWGQGTMVTVSS VL: DIQMTQSPSSLSASVGDRVTITCRASQSINNYLNWYHQKPGKAPKLLIYAASSLQSGVPSRFSGSGSGTDYTLTISSLQPEDFGNYYCQQSYRTSMYTFGQGTKVEIK	1.1	0.000115	104000	1.68	0.00269	1.56e-06	579000	123	–	–	–
H4H2212N (antibody, human IgG4, V domains shown, human IgG4 Fc (H4H)) VH: EVQLLESGGGLVQPGGSLRLSCAASGFTFSSYAMSWVRQGPGKGLEWVSGISGSGGSTYNADSVKGRFTISRDNSKNTLYLQMNSLRAEDTAVYYCAKDSGTYWYYFDYWGQGILVTVSS VL: not shown	–	–	–	–	–	–	–	–	0.05	1.9	1.76

Other lines, results leading:

Kd [1] [nM]	koff [1] [s⁻¹]	kon [1] [M⁻¹ s⁻¹]	t1/2 [1] [h]	Kd [2] [nM]	koff [2] [s⁻¹]	kon [2] [M⁻¹ s⁻¹]	t1/2 [2] [h]	binding response of second antibody (nm) [3] [nm]	binding response of second antibody (nm) [4] [nm]	binding response of second antibody (nm) [5] [nm]	Binder
1.06	0.00013	122000	1.48	≤ 0.0013	≤ 1e-06	771000	192	–	–	–	H4H2364S (antibody, human IgG4, V domains shown, human IgG4 Fc (H4H)) VH: EVQLVESGGGLEQPGGSLRLSCAASGFTFSSYVMSWVRQVPGKGLEWVSVISGSGGSTYYADSVKGRFTISRDNSKNTLYLQMNSLRAEDTAVYYCAKPSSYSSSNFHYGMDVWGQGTTVTVSS VL: DIQMTQSPYSVSASVGDRVTITCRASQGISSWLAWYQQKPGRAPKLLIYAASSLQSGVPSRFSGSGSGTDFTLTISSLQPEDFATYYCQKTNSFPFTFGPGTKVEIK
0.574	6.23e-05	109000	3.08	0.0189	1.09e-05	580000	17.6	–	–	–	H4H2354S (antibody, human IgG4, V domains shown, human IgG4 Fc (H4H); also called H4H2354S-1) VH: QVQLVESGGGVVQPGRSLRLSCAASGFSFSDYVMHWVRQAPGKGLEWVASIWFDGSNEFYADSVKGRFTISRDNSKNTLFLQMNSLRAEDTAVYYCAKKGVLVATSAFDIWGQGTMVTVSS VL: DIQLTQSPSSLSASVGDRVTITCRASQSINNYLNWYHQKPGKAPKLLIYAASSLQSGVPSRFSGSGSGTDYTLTISSLQPEDFGNYYCQQSYRTSMYTFGQGTKVEIK
0.556	5.98e-05	108000	3.22	0.0222	1.44e-05	647000	13.4	–	–	–	H4H2346S (antibody, human IgG4, V domains shown, human IgG4 Fc (H4H)) VH: QVQLVESGGGVVQPGRSLRLSCAASGFSFSDYVMHWVRQAPGKGLEWVASIWFDGSNEFYADSVKGRFTISRDNSKNTLFLQMNSLRAEDTAVYYCAKKGVLVATSAFDIWGQGTMVTVSS VL: EIVMTQSPSSLSASVGDRVTITCRASQSINNYLNWYHQKPGKAPKLLIYAASSLQSGVPSRFSGSGSGTDYTLTISSLQPEDFGNYYCQQSYRTSMYTFGQGTKVEIK
0.144	4.17e-05	290000	4.62	0.00159	1.93e-06	1.22e+06	99.8	–	–	–	H4H2293P (antibody, human IgG4, V domains shown, human IgG4 Fc (H4H)) VH: QVQLVESGGGVVQPGRSLRLSCAASGFSFSDYVMHWVRQAPGKGLEWVASIWFDGSNELYADSVKGRFTISRDNSKNTLFLQMNSLRAEDTAVYYCAKKGVLVATSAFHIWGQGTMVTVSS VL: AIQMTQSPSSLSASVGDRVTITCRASQNINNYLNWYHQKPGKAPNLLIYAASSLQSGVPSRFSGSGSGTDYTLTISSLQPEDFGNYYCQQSYSTSMYTFGQGTKLEIK

— patent US20140056903A1 (Regeneron, published 2014)
